In publication PMC6609509 (Molecular psychiatry, 2019):

Biological target: full-length recombinant ABI1 (UniProt Q8IZP0-5 1-476)
Experiment: SPR

B1: Shank3 fragment 4 (aa 668–858), S685I (domain or fragment, mouse, UniProt Q4ACU6 668-858, looked up)
chain: EEDGARRRAPPPPKRAPITTLTLRSKSMTAELEELASIRRRKGEKLDEILAVAAEPTLRPDIADADSRAATVKQRPTSRRITPAEISSLFERQGLPGPEKLPGSLRKGIPRTKSVGEDEKLASLLEGRFPRSTSMQDTVREGRGIPPPPQTAPPPPPAPYYFDSGPPPTFSPPPPPGRAYDTVRSSFKPGL
B1 was tested, and the “fold increase in KD against wild-type fragment 4” value was roughly 4 fold.
